Assay results reported in patent US20230192839A1, “ANTIBODIES HAVING CONDITIONAL AFFINITY AND METHODS OF USE THEREOF” (PFIZER INC., priority 2017, published 2023).
Residue numbers refer to the chain shown, from its start.

B1: P01_B06: anti-EGFR reference clone, less than 2-fold MTX effect; VH SEQ ID NO: 129, VL SEQ ID NO: 130 (antibody, V domains shown)
VH: QVQLVESGGGLVQAGGSLRLSCAASRRSSRSWAMHWVRQAPGKGLEWVAVISYDGRLKYYADSVKGRFTISRDNAEYLVYLQMNSLRAEDTAVYYCAADTSMFASYDPMDVWGQGTLVTVSS
VL: QSVLTQPPSASGTPGQRVTISCSGSSSNIGRNYVNWYQQLPGTAPKLLIYRDDHRPSGVPDRFSGSKSGTSASLAISGLRSEDEADYYCASWDDTLSGWVFGTGTKLTVL
modifications: Synthetic Antibody
B2: P05_A11: anti-EGFR clone with conditional affinity; VH SEQ ID NO: 133, VL SEQ ID NO: 134; also as scFv in CAR (antibody, V domains shown)
VH: QVQLVESGGGLVQAGGSLRLSCAASRRSSRSWAMHWVRQAPGKGLEWVAVISYDGRLKYYADSVKGRFTISRDNAEYLVYLQMNSLRAEDTAVYYCAASDDADIFDDYSYGAMDYWGQGTLVTVSS
VL: B1 VL with N35Y, R51M, D52T, D53S, H54Q, T95N, S97R, G98A
modifications: Synthetic Antibody
notes: also as scFv in CAR
B3: P01_F02: anti-EGFR clone with conditional affinity; VH SEQ ID NO: 119, VL SEQ ID NO: 120; also as scFv in CAR (antibody, V domains shown)
VH: QVQLVESGGGLVQAGGSLRLSCAASRRSSRSWAMHWVRQAPGKGLEWVAVISYDGRLKYYADSVKGRFTISRDNAEYLVYLQMNSLRAEDTAVYYCAADVESALAYGEPYHHMDVWGQGTLVTVSS
VL: B1 VL with N35Y, D52T, D53S, H54Q, S91T, T95S
modifications: Synthetic Antibody
notes: also as scFv in CAR
B4: P07_C04: anti-CD33 clone with conditional affinity; VH SEQ ID NO: 25, VL SEQ ID NO: 26; also as scFv in CAR (antibody, V domains shown)
VH: QVQLVESGGGLVQAGGSLRLSCAASRRSSRSWAMHWVRQAPGKGLEWVAVISYDGRLKYYADSVKGRFTISRDNAEYLVYLQMNSLRAEDTAVYYCAAEPDGEGTNGGLDIWGQGTLVTVSS
VL: DIQMTQSPSSLSASVGDRVTITCRASQNISRYLNWYQQKPGKAPKLLIYSASSLQTGVPSRFSGSGSGTDFTLTISSLQPEDFATYYCQQSYSSGAFGQGTKVEIK
modifications: Synthetic Antibody
notes: also as scFv in CAR
B5: P03_A01: anti-CD33 clone with conditional affinity; VH SEQ ID NO: 19, VL SEQ ID NO: 20; also as scFv in CAR (antibody, V domains shown)
VH: QVQLVESGGGLVQAGGSLRLSCAASRRSSRSWAMHWVRQAPGKGLEWVAVISYDGRLKYYADSVKGRFTISRDNAEYLVYLQMNSLRAEDTAVYYCAAETGSVGLDYWGQGTLVTVSS
VL: B4 VL with N28G, R31T, S50G, S52T, Q55E, T56S, S91G, S94Q, A96T
modifications: Synthetic Antibody
notes: also as scFv in CAR
B6: P03_G12: anti-CD33 clone with conditional affinity; VH SEQ ID NO: 21, VL SEQ ID NO: 22 (antibody, V domains shown)
VH: QVQLVESGGGLVQAGGSLRLSCAASRRSSRSWAMHWVRQAPGKGLEWVAVISYDGRLKYYADSVKGRFTISRDNAEYLVYLQMNSLRAEDTAVYYCAADPTEGWSYLDYWGQGTLVTVSS
VL: B4 VL with N28G, R31S, S50G, S53R, T56S, S91G, A96T
modifications: Synthetic Antibody
B7: P07_H08: anti-EGFR clone with conditional affinity; VH SEQ ID NO: 121, VL SEQ ID NO: 122; also as scFv in CAR (antibody, V domains shown)
VH: QVQLVESGGGLVQAGGSLRLSCAASRRSSRSWAMHWVRQAPGKGLEWVAVISYDGRLKYYADSVKGRFTISRDNAEYLVYLQMNSLRAEDTAVYYCAAGFDWGWDSSDIYSAMDYWGQGTLVTVSS
VL: DIQMTQSPSSLSASVGDRVTITCRASQNIGRYLHWYQQKPGKAPKLLIYSASNLQSGVPSRFSGSGSGTDFTLTISSLQPEDFATYYCQQSYSSPFTFGQGTKVEIK
modifications: Synthetic Antibody
notes: also as scFv in CAR
B8: P14_E03: anti-EGFR clone with conditional affinity; VH SEQ ID NO: 125, VL SEQ ID NO: 126 (antibody, V domains shown)
VH: QVQLVESGGGLVQAGGSLRLSCAASRRSSRSWAMHWVRQAPGKGLEWVAVISYDGRLKYYADSVKGRFTISRDNAEYLVYLQMNSLRAEDTAVYYCAAAPRVDWSDVSSGIDYWGQGTLVTVSS
VL: QSVLTQPPSASGTPGQRVTISCSGSISNIGTNNVYWYQQLPGTAPKLLIYRNNQRPSGVPDRFSGSKSGTSASLAISGLRSEDEADYYCSAWDDSLSGVVFGTGTKLTVL
modifications: Synthetic Antibody

What was measured:
[1] = tested on: human epidermal growth factor receptor (EGFR); assay: Biacore SPR binding kinetics of anti-EGFR scFv-Fc clones with or without 10 µM MTX; details: 37° C.; for koff, kinetics toward antigen with 0 µM MTX / kon, kinetics toward antigen with 0 µM MTX / koff, kinetics toward antigen with 10 µM MTX / kon, kinetics toward antigen with 10 µM MTX: pH 7.4, scFv-Fc; for koff, kinetics toward antigen with 10 µM MTX / kon, kinetics toward antigen with 10 µM MTX / Kd: 10 µM MTX; for Kd: pH 7.4, koff/kon, or estimated from binding response / limit of detection for weak interactions, read-out: KD, kinetics toward antigen with 10 µM MTX
Description: All binding kinetics analysis was performed on label-free Biacore surface plasmon biosensors (Biacore T200™ from GE Life Sciences) at 37° C. in 10 mM Hepes pH 7.4, 150 mM NaCl, 0.05% Tween-20 (HBST+), with or without 10 µM MTX. The Biacore data were processed in Biacore T200 Evaluation Software, and the data were double-referenced (Myszka, 1999, J Mol Recognit 12(5):279-284) and fit globally to a simple Langmuir with mass transport model to determine the equilibrium dissociation constant, KD, from the ratio of the kinetic rate constants (KD = koff/kon). In some cases the binding of antigen was very low (or not detectable) in the presence of 10 µM MTX and as a result kinetic rate constants could not be accurately determined. In these cases, a KD (or KD limit) was estimated based on the binding response at the highest analyte concentration tested or based on the typical limit of detection for a Biacore T200. […]

[2] = tested on: human CD33; assay: Biacore SPR binding kinetics of anti-CD33 scFv-Fc clones with or without 10 µM MTX; details: CD33, 37° C., pH 7.4
Description: The first 4 rounds of panning used biotinylated CD33 antigen captured on streptavidin or neutravidin coated 96-well plates. […] 1536 clones were randomly chosen from the 4th and 5th round of panning against the CD33 antigen and their binding specificity determined by phage ELISA. Clones that specifically bound to CD33 were sequenced and all unique clones were subjected to a phage competition ELISA to assess their relative affinities to CD33 and sensitivity to MTX by measuring their binding strengths in the presence or absence of 10 µM (micromolar) MTX (i.e. in 0 or 10 µM MTX).
All binding kinetics analysis was performed on label-free Biacore surface plasmon biosensors (Biacore T200™ from GE Life Sciences) at 37° C. in 10 mM Hepes pH 7.4, 150 mM NaCl, 0.05% Tween-20 (HBST+), with or without 10 µM MTX. The Biacore data were processed in Biacore T200 Evaluation Software, and the data were double-referenced (Myszka, 1999, J Mol Recognit 12(5):279-284) and fit globally to a simple Langmuir with mass transport model to determine the equilibrium dissociation constant, KD, from the ratio of the kinetic rate constants (KD = koff/kon). In some cases the binding of antigen was very low (or not detectable) in the presence of 10 µM MTX and as a result kinetic rate constants could not be accurately determined. In these cases, a KD (or KD limit) was estimated based on the binding response at the highest analyte concentration tested or based on the typical limit of detection for a Biacore T200.

[3] = tested on: MV4-11 cells; assay: Sequential rounds of in vitro cytotoxicity assays with changing MTX concentration (reversible inhibition); type: cell-based, human; details: Round 0-1 no MTX, then 100 µM MTX at Round 1-2 and Round 2-3; FIGS. 9A and 9B
Description: The anti-CD33 clones tested in this example were: P03_A01, P07_C04, and P02_D09. In addition, a tool T cell was prepared as described in Example 4, as were untransduced T cells. Also, each of the different conditional CAR T cells described above was generated in triplicate from PBMC cells from three different human donors. The target cell line used in this assay was MV4-11; these cells were transduced to stably express GFP and firefly luciferase, as described in Example 5.
This experiment involved a series of in vitro cytotoxicity assays, in which co-cultures of T cells and MV4-11 target cells were incubated together for multiple rounds of sequential cytotoxicity assays, in which the MTX concentration changed at different rounds of the assays. In vitro cytotoxicity assays were carried out in 24-well plates by co-culturing 200,000 T cells with 200,000 MV4-11 cells, for each different T cells described above. In addition, each of the co-cultures contained either 100 µM MTX or 0 µM MTX at different times, as indicated by the schematics in FIGS. 9A and 9C. In both conditions, 1 mM leucovorin was supplemented to circumvent MTX toxicity. For each round of the assay, co-cultures were maintained in a final volume of 500 µl of RPMI 1640 medium at 37 C with 5% CO2 for 48 hours. At the end of each round, cells were spun down (250 × g, 10 minutes), supernatant was removed, and fresh media containing fresh MV4-11 cells, leucovorin, and optionally MTX were added according to the schematics shown in FIGS. 9A and 9C. Target cell killing was assessed and plotted as described in Example 4.
In comparing the different panels of FIGS. 9A-9D, note that the schematics shown in FIGS. 9A and 9C indicate the MTX concentration in the co-culture at the start of the assay for a given round, whereas the results from that assay are shown the next round number in FIGS. 9B and 9D, respectively. […]

Row | Molecule | koff, kinetics toward antigen with 0 µM MTX [1] | kon, kinetics toward antigen with 0 µM MTX [1] | koff, kinetics toward antigen with 10 µM MTX [1] | kon, kinetics toward antigen with 10 µM MTX [1] | koff, kinetics toward antigen with 0 µM MTX ([2]; scFv-Fc) | kon, kinetics toward antigen with 0 µM MTX ([2]; scFv-Fc) | other results
1 | B1 | 0.024 s⁻¹ | 100000 M⁻¹ s⁻¹ | 0.026 s⁻¹ | 100000 M⁻¹ s⁻¹ | – | – | –
2 | B2 | 0.028 s⁻¹ | 120000 M⁻¹ s⁻¹ | 0.05 s⁻¹ | 87000 M⁻¹ s⁻¹ | – | – | –
3 | B3 | 0.011 s⁻¹ | 61000 M⁻¹ s⁻¹ | – | – | – | – | Kd [1]: > 9.41 µM
4 | B4 | – | – | – | – | 0.0029 s⁻¹ | 95000 M⁻¹ s⁻¹ | koff, kinetics toward antigen with 10 µM MTX ([2]; 10 µM MTX, scFv-Fc): 0.025 s⁻¹; kon, kinetics toward antigen with 10 µM MTX ([2]; 10 µM MTX, scFv-Fc): 170000 M⁻¹ s⁻¹; target cell killing when MTX is added to active CAR T cells ("on" to "off") [3]: quick inhibition rates
5 | B5 | – | – | – | – | 0.0057 s⁻¹ | 50000 M⁻¹ s⁻¹ | target cell killing when MTX is added to active CAR T cells ("on" to "off") [3]: requires two rounds of MTX to be fully inhibited
6 | B6 | – | – | – | – | 0.0094 s⁻¹ | 71000 M⁻¹ s⁻¹ | Kd ([2]; 10 µM MTX, koff/kon, or estimated from binding response / limit of detection for weak interactions, read-out: KD, kinetics toward antigen with 10 µM MTX): > 10.9 µM
7 | B7 | 0.27 s⁻¹ | 330000 M⁻¹ s⁻¹ | – | – | – | – | Kd [1]: > 9.37 µM
8 | B8 | 0.00067 s⁻¹ | 110000 M⁻¹ s⁻¹ | 0.00072 s⁻¹ | 29000 M⁻¹ s⁻¹ | – | – | –
